Assay results from paper PMC2880568 (PLoS Pathogens, 2010).

Assays:
Settings in all cases: both partners purified
[1] = molecular target: T1, EloBC (elongin B - elongin C heterodimer) (UniProt Q15370 1-118; Q15369 16-111); assay: NMR titration
T1 construct: also called EloB-EloC heterodimer; full length EloBC

[2] = molecular target: T1, EloBC (elongin B - elongin C …); assay: ITC
[3] = molecular target: T1, EloBC (elongin B - elongin C …); assay: SEC

T1 sequence (Q15370 whole entry, chain 1 of 2): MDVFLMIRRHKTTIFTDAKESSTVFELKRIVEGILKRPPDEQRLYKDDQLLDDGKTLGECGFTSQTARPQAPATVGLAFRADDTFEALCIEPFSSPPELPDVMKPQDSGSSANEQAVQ
T1 sequence (Q15369 16-111, chain 2 of 2): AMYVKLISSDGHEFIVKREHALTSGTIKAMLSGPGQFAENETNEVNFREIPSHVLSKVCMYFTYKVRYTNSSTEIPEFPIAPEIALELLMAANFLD

Row | Binder | KD fitted to the peak of EloB Asp-101 [1] | KD fitted to the peak of EloB Lys-104 [1] | KD fitted to the peak of EloB Met-103 [1] | KD fitted to the peak of EloB Val-102 [1] | Kd [2] | stoichiometry N [3]
1 | wild type Vif SOCS-box protein (domain or fragment, source: E. coli BL21(DE3), purified (Ni-NTA, Superdex 75)) not shown | 1.71 µM | 3.56 µM | 1.73 µM | 0.43 µM | 1.2 µM | 1
2 | HNKVGSLQYLALAALITPKKIKAAAPSVTKLTEDRWNK (domain or fragment, source: E. coli BL21(DE3), purified (Ni-NTA, Superdex 75)) [ΔPPL Vif SOCS-box protein] |  |  |  |  | 1.25 µM | 
